Source: IntAct's records for PubMed 16365431

B1: Inhibitor of nuclear factor kappa-B kinase subunit beta (Homo sapiens), O14920 (parent)
chain: MSWSPSLTTQTCGAWEMKERLGTGGFGNVIRWHNQETGEQIAIKQCRQELSPRNRERWCLEIQIMRRLTHPNVVAARDVPEGMQNLAPNDLPLLAMEYCQGGDLRKYLNQFENCCGLREGAILTLLSDIASALRYLHENRIIHRDLKPENIVLQQGEQRLIHKIIDLGYAKELDQGSLCTSFVGTLQYLAPELLEQQKYTVTVDYWSFGTLAFECITGFRPFLPNWQPVQWHSKVRQKSEVDIVVSEDLNGTVKFSSSLPYPNNLNSVLAERLEKWLQLMLMWHPRQRGTDPTYGPNGCFKALDDILNLKLVHILNMVTGTIHTYPVTEDESLQSLKARIQQDTGIPEEDQELLQEAGLALIPDKPATQCISDGKLNEGHTLDMDLVFLFDNSKITYETQISPRPQPESVSCILQEPKRNLAFFQLRKVWGQVWHSIQTLKEDCNRLQQGQRAAMMNLLRNNSCLSKMKNSMASMSQQLKAKLDFFKTSIQIDLEKYSEQTEFGITSDKLLLAWREMEQAVELCGRENEVKLLVERMMALQTDIVDLQRSPMGRKQGGTLDDLEEQARELYRRLREKPRDQRTEGDSQEMVRLLLQAIQSFEKKVRVIYTQLSKTVVCKQKALELLPKVEEVVSLMNEDEKTVVRLQEKRQKELWNLLKIACSKVRGPVSGSPDSMNASRLSQPGQLMSQPSTASNSLPEPAKKSEELVAEAHNLCTLLENAIQDTVREQDQSFTALDWSWLQTEEEEHSCLEQAS

Variants of: B1
Settings: with ikba_human NFKBIA

Row | Variant | effect of a mutation on the interaction
1 | K44M | disrupting interaction
